Measurements taken from article PMC2756588.

Columns and labels:
Assay in all cases: SPOT array
Abp1, P15891 = target: T1, Abp1, P15891; conditions: median of control spots 935
T1 sequence (P15891 535-592, looked up): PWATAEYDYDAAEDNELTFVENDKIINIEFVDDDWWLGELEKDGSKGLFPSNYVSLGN

Bbc1, P47068 = target: T2, Bbc1, P47068; conditions: median of control spots 796
T2 sequence (P47068 1-78, looked up): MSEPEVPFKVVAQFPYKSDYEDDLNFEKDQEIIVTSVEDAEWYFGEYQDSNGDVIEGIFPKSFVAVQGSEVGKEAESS

Bem1-1, P29366 = conditions: median of control spots 4282
Bem1-1, P29366, sequence (P29366 55-141): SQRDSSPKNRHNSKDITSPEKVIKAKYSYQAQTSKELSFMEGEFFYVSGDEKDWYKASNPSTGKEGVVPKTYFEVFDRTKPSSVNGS

Bem1-2, P29366 = conditions: median of control spots 4347
Bem1-2, P29366, sequence (P29366 139-227): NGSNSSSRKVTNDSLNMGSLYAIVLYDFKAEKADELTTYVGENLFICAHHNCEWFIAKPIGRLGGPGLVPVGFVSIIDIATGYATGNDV

Boi1, P38041 = target: T3, Boi1, P38041; conditions: median of control spots 1162
T3 sequence (P38041 1-86, looked up): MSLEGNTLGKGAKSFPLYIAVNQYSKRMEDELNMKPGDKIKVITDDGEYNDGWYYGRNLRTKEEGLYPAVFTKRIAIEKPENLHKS

Boi2, P39969 = target: T4, Boi2, P39969; conditions: median of control spots 1161
T4 sequence (P39969 32-116, looked up): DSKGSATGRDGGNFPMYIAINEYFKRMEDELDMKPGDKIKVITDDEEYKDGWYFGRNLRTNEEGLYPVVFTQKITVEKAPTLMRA

Bud14, P27637 = target: T5, Bud14, P27637; conditions: median of control spots 956
T5 sequence (P27637 247-328, looked up): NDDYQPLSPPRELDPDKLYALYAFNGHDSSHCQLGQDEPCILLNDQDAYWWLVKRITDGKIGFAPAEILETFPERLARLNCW

Bzz1-1, P38822 = target: T6, Bzz1-1, P38822; conditions: median of control spots 4446
T6 sequence (P38822 478-572, looked up): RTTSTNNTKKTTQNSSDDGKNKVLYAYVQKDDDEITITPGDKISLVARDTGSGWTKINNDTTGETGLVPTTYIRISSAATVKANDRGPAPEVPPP

Bzz1-2, P38822 = target: T7, Bzz1-2, P38822; conditions: median of control spots 4538
T7 sequence (P38822 568-633, looked up): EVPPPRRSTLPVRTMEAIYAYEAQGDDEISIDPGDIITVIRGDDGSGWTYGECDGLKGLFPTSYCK

Cdc25, P04821 = target: T8, Cdc25, P04821; conditions: median of control spots 969
T8 sequence (P04821 50-136, looked up): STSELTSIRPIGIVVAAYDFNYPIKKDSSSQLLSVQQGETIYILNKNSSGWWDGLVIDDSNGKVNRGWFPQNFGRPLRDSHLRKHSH

Cyk3, Q07533 = target: T9, Cyk3, Q07533; conditions: median of control spots 1451
T9 sequence (Q07533 1-83, looked up): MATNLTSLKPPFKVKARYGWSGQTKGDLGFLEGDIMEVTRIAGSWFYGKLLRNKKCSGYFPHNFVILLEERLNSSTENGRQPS

Fus1, P11710 = target: T10, Fus1, P11710; conditions: median of control spots 1200
T10 sequence (P11710 432-512, looked up): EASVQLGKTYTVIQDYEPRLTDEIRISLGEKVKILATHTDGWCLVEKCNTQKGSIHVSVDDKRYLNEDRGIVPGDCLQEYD

GST = conditions: median of control spots 978
Hof1, Q05080 = target: T11, Hof1, Q05080; conditions: median of control spots 4086
T11 sequence (Q05080 590-669, looked up): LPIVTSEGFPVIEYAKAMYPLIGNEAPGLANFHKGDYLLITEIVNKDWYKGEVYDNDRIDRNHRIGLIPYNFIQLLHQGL

Hse1, P38753 = target: T12, Hse1, P38753; conditions: median of control spots 1727
T12 sequence (P38753 208-285, looked up): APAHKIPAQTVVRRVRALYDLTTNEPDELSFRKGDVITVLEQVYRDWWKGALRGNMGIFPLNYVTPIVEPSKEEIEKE

Lsb1, P53281 = target: T13, Lsb1, P53281; conditions: median of control spots 388
T13 sequence (P53281 45-122, looked up): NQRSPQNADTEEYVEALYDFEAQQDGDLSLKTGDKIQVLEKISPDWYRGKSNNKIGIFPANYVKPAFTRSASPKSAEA

Lsb3, P43603 = target: T14, Lsb3, P43603; conditions: median of control spots 406
T14 sequence (P43603 385-451, looked up): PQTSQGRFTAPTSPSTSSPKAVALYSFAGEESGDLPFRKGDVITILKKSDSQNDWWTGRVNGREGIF

Lsb4, P32793 = target: T15, Lsb4, P32793; conditions: median of control spots 397
T15 sequence (P32793 402-468, looked up): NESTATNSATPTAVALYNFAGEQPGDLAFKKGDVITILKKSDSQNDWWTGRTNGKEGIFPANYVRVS

Myo3, P36006 = conditions: median of control spots 468
Myo5, Q04439 = target: T16, Myo5, Q04439; conditions: median of control spots 471
T16 sequence (Q04439 1072-1160, looked up): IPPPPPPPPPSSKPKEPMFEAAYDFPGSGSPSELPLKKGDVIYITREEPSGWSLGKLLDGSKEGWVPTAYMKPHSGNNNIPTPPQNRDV

Nbp2, Q12163 = target: T17, Nbp2, Q12163; conditions: median of control spots 357
T17 sequence (Q12163 103-180, looked up): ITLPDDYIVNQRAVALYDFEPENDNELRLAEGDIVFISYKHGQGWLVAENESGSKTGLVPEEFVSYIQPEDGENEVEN

Pex13, P80667 = target: T18, Pex13, P80667; conditions: median of control spots 1341
T18 sequence (P80667 295-386, looked up): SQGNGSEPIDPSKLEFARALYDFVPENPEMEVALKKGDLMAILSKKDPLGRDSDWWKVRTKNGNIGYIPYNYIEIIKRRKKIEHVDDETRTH

Pin3, Q06449 = target: T19, Pin3, Q06449; conditions: median of control spots 2171
T19 sequence (Q06449 53-122, looked up): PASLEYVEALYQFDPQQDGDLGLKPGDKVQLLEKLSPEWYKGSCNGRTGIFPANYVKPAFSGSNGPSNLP

Rvs167, P39743 = conditions: median of control spots 2707
Rvs167, P39743, sequence (P39743 419-482): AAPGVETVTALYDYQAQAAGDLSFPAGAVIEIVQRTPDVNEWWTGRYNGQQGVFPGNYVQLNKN

Sho1, P40073 = conditions: median of control spots 1148
Sho1, P40073, sequence (P40073 287-367): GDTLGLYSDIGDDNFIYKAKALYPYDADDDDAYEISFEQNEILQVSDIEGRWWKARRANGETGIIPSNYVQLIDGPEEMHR

Sla1-2, P32790 = target: T20, Sla1-2, P32790; conditions: median of control spots 712
T20 sequence (P32790 60-140, looked up): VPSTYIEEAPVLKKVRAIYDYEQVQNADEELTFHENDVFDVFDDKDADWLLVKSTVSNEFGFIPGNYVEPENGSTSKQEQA

Sla1-3, P32790 = target: T21, Sla1-3, P32790; conditions: median of control spots 5475
T21 sequence (P32790 344-424, looked up): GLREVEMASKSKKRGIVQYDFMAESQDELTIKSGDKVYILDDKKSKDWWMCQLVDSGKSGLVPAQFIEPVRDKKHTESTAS

SPOT intensity (Abp1, P15891) | SPOT intensity (Bbc1, P47068) | SPOT intensity (Bem1-1, P29366) | SPOT intensity (Bem1-2, P29366) | SPOT intensity (Boi1, P38041) | SPOT intensity (Boi2, P39969) | SPOT intensity (Bud14, P27637) | SPOT intensity (Bzz1-1, P38822) | SPOT intensity (Bzz1-2, P38822) | SPOT intensity (Cdc25, P04821) | SPOT intensity (Cyk3, Q07533) | SPOT intensity (Fus1, P11710) | SPOT intensity (GST) | SPOT intensity (Hof1, Q05080) | SPOT intensity (Hse1, P38753) | SPOT intensity (Lsb1, P53281) | SPOT intensity (Lsb3, P43603) | SPOT intensity (Lsb4, P32793) | SPOT intensity (Myo3, P36006) | SPOT intensity (Myo5, Q04439) | also measured | Binder
301 | 0 | 0 | 0 | 1 | 0 | 0 | 0 | 2 | 0 | 0 | 0 | 0 | 1440 | 59 | 0 | 2 | 0 | 0 | 0 | SPOT intensity (Nbp2, Q12163): 0; SPOT intensity (Pex13, P80667): 688; SPOT intensity (Pin3, Q06449): 0; SPOT intensity (Rvs167, P39743): 0; SPOT intensity (Sho1, P40073): 2240; SPOT intensity (Sla1-2, P32790): 0; SPOT intensity (Sla1-3, P32790): 0 | IVNKPLPPLPVAGSS
0 | 0 | 0 | 0 | 0 | 0 | 0 | 0 | 0 | 0 | 0 | 0 | 0 | 2 | 1 | 0 | 6 | 0 | 0 | 0 | SPOT intensity (Nbp2, Q12163): 0; SPOT intensity (Pex13, P80667): 47; SPOT intensity (Pin3, Q06449): 0; SPOT intensity (Rvs167, P39743): 0; SPOT intensity (Sho1, P40073): 1320; SPOT intensity (Sla1-2, P32790): 0; SPOT intensity (Sla1-3, P32790): 0 | DLFKPLPEPPTELGR
0 | 0 | 1 | 0 | 0 | 0 | 0 | 0 | 0 | 0 | 0 | 0 | 0 | 354 | 1 | 16 | 4 | 2 | 0 | 0 | SPOT intensity (Nbp2, Q12163): 0; SPOT intensity (Pex13, P80667): 12; SPOT intensity (Pin3, Q06449): 2; SPOT intensity (Rvs167, P39743): 2; SPOT intensity (Sho1, P40073): 1480; SPOT intensity (Sla1-2, P32790): 1; SPOT intensity (Sla1-3, P32790): 0 | EREKALPPIPFTTTL
9 | 0 | 2 | 0 | 2 | 0 | 2 | 3 | 0 | 4 | 1 | 0 | 0 | 25 | 0 | 0 | 1 | 0 | 0 | 0 | SPOT intensity (Nbp2, Q12163): 0; SPOT intensity (Pex13, P80667): 9; SPOT intensity (Pin3, Q06449): 0; SPOT intensity (Rvs167, P39743): 2; SPOT intensity (Sho1, P40073): 927; SPOT intensity (Sla1-2, P32790): 0; SPOT intensity (Sla1-3, P32790): 1 | NENKKLPPAPTVFGL
